In PMC7612055 (Nature chemistry, 2021):

Molecular target: proteasome αΔ12-subunit (Thermoplasma acidophilum, UniProt P25156 13-233)
Experiment: native gel or EMSA

Chain of proteasome αΔ12-subunit (P25156 13-233, stated change not applied): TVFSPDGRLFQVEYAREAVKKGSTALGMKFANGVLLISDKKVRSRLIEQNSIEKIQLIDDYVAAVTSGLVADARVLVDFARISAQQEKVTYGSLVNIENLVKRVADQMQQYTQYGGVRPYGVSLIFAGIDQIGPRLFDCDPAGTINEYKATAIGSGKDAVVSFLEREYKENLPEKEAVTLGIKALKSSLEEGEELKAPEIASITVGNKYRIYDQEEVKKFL

B1: proteasome β-subunit (natural protein)
chain: TTTVGITLKDAVIMATERRVTMENFIMHKNGKKLFQIDTYTGMTIAGLVGDAQVLVRYMKAELELYRLQRRVNMPIEAVATLLSNMLNQVKYMPYMVQLLVGGIDTAPHVFSIDAAGGSVEDIYASTGSGSPFVYGVLESQYSEKMTVDEGVDLVIRAISAAKQRDSASGGMIDVAVITRKDGYVQLPTDQIESRIRKLGLIL
- binding result: binds
